{
  "source": "patent US12649776B2",
  "about": "“Scaffold proteins and therapeutic nanoconjugates based on nidogen” (UNIVERSITAT AUTÒNOMA DE BARCELONA, priority 2019, dated 2026)",
  "key": {"[1]": {"test": "Intrinsic fluorescence (Centre of Spectral Mass) vs temperature, unfolding temperature determination", "type": "physicochemical", "details": "for Stability indexes Tm, Tonset and ΔT from CSM profiles: carbonate and FDA-approved buffers A9, B6, D1", "protocol": "Fluorescence spectra were recorded in a Cary Eclipse spectrofluorimeter (Agilent Technologies, Mulgrave, Australia). A quartz cell with 10 mm path length and a thermostated holder was used. The excitation and emission slits were set at 5 nm. Excitation wavelength (λex) was set at 295 nm. Emission spectra were acquired within a range from 310 to 450 nm. The protein concentration was 0.2 mg/mL in carbonate buffer (166 mM NaCO3H, pH 8). In order to evaluate the conformation stability against heating we obtained the fluorescence spectra at each temperature at a 1° C./min scan rate and we calculated the Centre of Spectral Mass (CSM) for each spectrum. CSM is a weighted average of the fluorescence spectrum peak. Also it is related with the relative exposure of the Trp to the protein environment. The maximum red-shift in the CSM of the Trp, is compatible with a large solvent accessibility (Li, T. M.; et al., Biochemistry 1976, 15, 5571-80; Ruan, K and Weber, G, Biochemistry 1989, 28 (5), 2144-53 and Mohana-Borges, R. et al., Proceedings of the National Academy of Sciences of the United States of America 1999, 96 (14), 7888-93) and the protein unfolding.\nThe Centre of Spectral Mass (CSM) was calculated for each of the fluorescence emission according to Eq.1 (Lakowicz, J. R.; et al., 1991, Biophys Chem 39(1), 79-84), where Ii is the fluorescence intensity measure at the wavelength λi.\nMidpoint unfolding temperature (Tm) was determined as the temperature value that correspond to the inflexion point of the CSM vs T° curve. We also determined the Tonset as the temperature where the CSM value begins to increase."}, "[2]": {"test": "Stability study in buffers: soluble protein loss after dialysis (Bradford, Nanodrop)", "procedure": "For the stability study in other buffers, purified protein fractions were dialyzed against chosen FDA-approved buffer and carbonate as control. Protein concentration was initially set at 2.0 mg/ml in carbonate buffer and dialysed into 0.5 ml of each new buffer. Samples were centrifuged for 15 min 15000 g to remove precipitate and the remaining soluble protein concentration was determined by Bradford's assay and Nanodrop.\nThe stability of resulting proteins was studied in three FDA-approved buffers, and carbonate as control buffer."}, "[3]": {"test": "Precipitation assay against increasing concentrations of ZnCl2", "type": "physicochemical", "details": "increasing ZnCl2 up to 0.16 mM", "protocol": "T22-NIDOmut3-H6, T22-NIDOmut4 T215V-H6 and T22-NIDOmut5-H6 were selected to proceed with the characterization due to their best production yields (24, 26 and 28 mg/L, respectively). At this point, volume-size distribution of each candidate was studied via DLS (FIG. 16). All three candidates were equivalent to the original T22-NIDOmut2-H6 in size before and after assembly into nanoparticles with ZnCl2 (0.04 mM). […] Precisely because Zn is used to mediate this assembly, it was deemed appropriate to perform a precipitation assay against increasing concentrations of ZnCl2, up to 0.16 mM, (FIG. 17A) to test whether the new proteins were resistant to Zn-induced precipitation or not."}, "[4]": {"test": "Volume size distribution of protein nanoparticles and nanoconjugates by Dynamic Light Scattering (DLS)", "type": "physicochemical", "details": "for Nanoparticle size after assembly with ZnCl2 (DLS): assembled with ZnCl2 (0.04 mM and further concentrations up to 0.16 mM)", "protocol": "Volume size distribution of all protein nanoparticles and nanoconjugates were determined by Dynamic Light Scattering (DLS) at 633 nm in a Zetasizer Nano ZS (Malvern Instruments) in triplicate.\nVolume size distribution of protein nanoparticles was determined in a Zetasizer Nano ZS (Malvern Instruments) by Dynamic Light Scattering (DLS) at 633 nm in triplicates.\nThe integrity of the recombinant proteins was checked by mass spectrometry (MALDI-TOF), TGX (Tris-Glycine eXtended) Stain-Free acrylamide gels electrophoresis (BioRad) and Western Blot analysis using anti-His monoclonal antibody (1:1000; Santa Cruz, ref. 57598). Protein concentration was determined by Bradford (Biorad) assay with an Albumin (Roche) standard curve. GFP fluorescence emission (510 nm) was determined on purified proteins with a Cary Eclipse fluorescence spectrophotometer (Agilent Technologies) using an excitation wavelength of 450 nm. The volume and size distribution of nanoparticles were measured by dynamic light scattering (DLS) at 633 nm through a Zetasizer Nano ZS (Malvern Instruments) using quartz cuvettes."}, "[5]": {"system": "CXCR4+ HeLa cells", "test": "In vitro cell viability of FdU nanoconjugates (CellTiter-Glo Luminescent Cell Viability Assay)", "type": "cell-based, Human", "details": "CXCR4+ HeLa cell line, 25 nM, 48 h", "procedure": "HeLa cells (ATCC, CCL-2) were incubated in opaque 96-well plates in 90 μl of MEM alpha medium (Gibco) containing 10% of Fetal bovine serum (Gibco) in humidified atmosphere and 5% CO 2 at 37° C. Then, 10 μl of T22-NIDOmut3-H6-FdU and T22-NIDOmut2-H6-FdU nanoconjugates were added along with the control T22-NIDOmut3-H6 at 25 nM final concentration and incubated for additional 48 h. Cell viability was finally tested by CellTiter-Glo® Luminescent Cell Viability Assay (Promega) in a Victor 3 luminescent plate reader (Perkin Elmer). All samples were analyzed in triplicate and data expressed as mean % of viability (related to control cells)+/− standard error."}},
  "data": [
    {"molecule": "STMH6: Isolated hexahistidine-tagged stefin A (protein, UniProt P01040 1-98, looked up, His6 tag, Isolated hexahistidine-tagged stefin A) Cystatin-A: MIPGGLSEAKPATPEIQEIVDKVKPQLEEKTNETYGKLEAVQYKTQVVAGTNYYIKVRAGDNKYMHLKVFKSLPGQNEDLVLTGYQVDKNKDDELTGF", "values": [
      {"measurement": "Tm", "setting": "[1]; *Tm value assuming that the maximal CSM values represent the entirely unfolding state of the protein", "value": "≅76° C.*"},
      {"measurement": "Tonset, 1", "setting": "[1]; temperature where the CSM value begins to increase", "value": 70, "unit": "°C"}
    ]},
    {"molecule": "T22-NIDOmut2-H6: Modular protein: N-terminal T22 CXCR4 ligand, linker, mutated human nidogen-1 G2 domain (NIDOmut2), C-terminal poly-histidine; SEQ ID NO: 61 (protein) RRWCYRKCYKGYCYRKCRGGSSRSSSPQRVNGKVKGRIFVGSSQVPIVFENTDLASYVVMNHGNSYTAISTIPETVGYSLLPLAPVGGIIGWMFAVEQDGFKNGFSITGGEFTRQAEVTFVGHPGNLVIKQRFSGIDEHGHLTIDTELEGRVPQIPFGSSVHIEPYTELYHYSTSVITSSSTREYTVTEPERDGASPSRIYTYQWRQTITFQECVHDDSRPALPSTQQLSVDSVSVLYNQEEKILAYALSNSIGPVREGSPDAKHHHHHH", "values": [
      {"measurement": "% Precipitation (Bradford)", "setting": "[2]; buffer A9", "value": 12.7, "unit": "%"},
      {"measurement": "% Precipitation (Nanodrop)", "setting": "[2]; buffer A9", "value": 29.0, "unit": "%"},
      {"measurement": "% Precipitation (Bradford)", "setting": "[2]; buffer B6", "value": "None"},
      {"measurement": "% Precipitation (Nanodrop)", "setting": "[2]; buffer B6", "value": "None"},
      {"measurement": "% Precipitation (Bradford)", "setting": "[2]; buffer Carbonate", "value": 17.6, "unit": "%"},
      {"measurement": "% Precipitation (Nanodrop)", "setting": "[2]; buffer Carbonate", "value": 23.9, "unit": "%"},
      {"measurement": "% Precipitation (Bradford)", "setting": "[2]; buffer D1", "value": 84.1, "unit": "%"},
      {"measurement": "% Precipitation (Nanodrop)", "setting": "[2]; buffer D1", "value": 86.5, "unit": "%"},
      {"measurement": "Loss of the initial soluble protein by Zn-induced precipitation", "setting": "[3]", "value": "up to 66%"},
      {"measurement": "Nanoparticle size (volume size distribution, DLS)", "setting": "[4]; self-assembled material in storage (carbonate) buffer", "value": "~12", "unit": "nm"}
    ]},
    {"molecule": "T22-NIDOmut3-H6: T22-linker-NIDOmut3-H6 fusion protein, SEQ ID NO: 106 (protein, T22-NIDOmut3-H6) RRWCYRKCYKGYCYRKCRGGSSRSSSPQRVNGKVKGRIFVGSSQVPIVFENTDLASYVVMNHGNSYTAISTIPETVGYSLLPLAPVGGIIGWMFAVEQDGFKNGFSITGGEFTRQAEVTFVGHPGNLVIKQRFSGIDEKGNLTIDTELEGRVPQIPFGSSVHIEPYTELYHYSTSVITSSSTREYTVTEPERDGASPSRIYTYQWRQTITFQECVHDDSRPALPSTQQLSVDSVSVLYNQEEKILAYALSNSIGPVREGSPDAKHHHHHH", "values": [
      {"measurement": "% Precipitation (Bradford)", "setting": "[2]; buffer A9", "value": 10.25, "unit": "%"},
      {"measurement": "% Precipitation (Nanodrop)", "setting": "[2]; buffer A9", "value": 15.4, "unit": "%"},
      {"measurement": "% Precipitation (Bradford)", "setting": "[2]; buffer B6", "value": 5.4, "unit": "%"},
      {"measurement": "% Precipitation (Nanodrop)", "setting": "[2]; buffer B6", "value": "None"},
      {"measurement": "Solubility after dialysis", "setting": "[2]; buffer B6", "value": "remained highly soluble"},
      {"measurement": "% Precipitation (Bradford)", "setting": "[2]; buffer Carbonate", "value": 17.6, "unit": "%"},
      {"measurement": "% Precipitation (Nanodrop)", "setting": "[2]; buffer Carbonate", "value": 24.5, "unit": "%"},
      {"measurement": "% Precipitation (Bradford)", "setting": "[2]; buffer D1", "value": 83.6, "unit": "%"},
      {"measurement": "% Precipitation (Nanodrop)", "setting": "[2]; buffer D1", "value": 84.3, "unit": "%"},
      {"measurement": "Nanoparticle size after assembly with ZnCl2 (DLS)", "setting": "[4]", "value": 17, "unit": "nm"},
      {"measurement": "Stability indexes Tm, Tonset and ΔT from CSM profiles", "setting": "[1]", "value": "shows the highest values"},
      {"measurement": "Cytotoxicity", "setting": "[5]", "value": "did not cause any cytoxicity"}
    ]},
    {"molecule": "T22-NIDOmut5-H6: T22 fusion protein, SEQ ID NO: 113 (protein, T22-NIDOmut5-H6) RRWCYRKCYKGYCYRKCRGGSSRSSSPQRVNGKVKGRIFVGSSQTPIVFENTDLASYVVMNHGNSYTAISTIPETVGYSLLPLAPVGGIIGWMFAVEQDGFKNGFSITGGEFTRQAEVTFQGHPGNLVIKQRFSGIDEKGNLTIDTELEGRVPQIPEGSSVHIEPYTELYHYSTSVITSSSTREYTVTEPERDGASPSRIYTYQWRQTITFQESTHDDSRPALPSTQQLSVDSVSVLYNQEEKILAYALSNSIGPVREGSPDAKHHHHHH", "values": [
      {"measurement": "% Precipitation (Bradford)", "setting": "[2]; buffer A9", "value": "None"},
      {"measurement": "% Precipitation (Nanodrop)", "setting": "[2]; buffer A9", "value": "None"},
      {"measurement": "Solubility after dialysis", "setting": "[2]; buffer A9", "value": "best suited"},
      {"measurement": "% Precipitation (Bradford)", "setting": "[2]; buffer B6", "value": 15.4, "unit": "%"},
      {"measurement": "% Precipitation (Nanodrop)", "setting": "[2]; buffer B6", "value": 26.6, "unit": "%"},
      {"measurement": "% Precipitation (Bradford)", "setting": "[2]; buffer Carbonate", "value": 60.4, "unit": "%"},
      {"measurement": "% Precipitation (Nanodrop)", "setting": "[2]; buffer Carbonate", "value": 24.2, "unit": "%"},
      {"measurement": "% Precipitation (Bradford)", "setting": "[2]; buffer D1", "value": 50.1, "unit": "%"},
      {"measurement": "% Precipitation (Nanodrop)", "setting": "[2]; buffer D1", "value": 62.4, "unit": "%"},
      {"measurement": "Nanoparticle size after assembly with ZnCl2 (DLS)", "setting": "[4]", "value": "nanoparticles of higher size"},
      {"measurement": "Stability indexes Tm, Tonset and ΔT from CSM profiles", "setting": "[1]", "value": "Second protein with better stability indexes"}
    ]}
  ]
}
